Assay results from paper PMC10899632, “Archaeal histone-based chromatin structures regulate transcription elongation rates” (Communications Biology, 2024).

Target: the molecule itself
Assay: SDS-PAGE and Western blot of the purified protein; 1 ug purified histone on 16.5% Tris-Tricine SDS gels, Coomassie stain or Western blot with polyclonal anti-HTkA antibodies; dimers and higher-order species persist after extensive heating

B1: Thermococcus kodakarensis histone A protein (HTkA^WT) (natural protein)
chain: not shown
notes: Histone A (HTkA) of Thermococcus kodakarensis, encoded by TK1413 on plasmid pTS600; No tag is mentioned; purified by heparin and size exclusion; also called TK1413; recombinant HTkA; source: E. coli Rosetta 2 (DE3), purified (heat treatment, HiTrap Heparin, Sephacryl S-100)
binding result: binds
